# Measurements from patent publication US20210301295A1.
# B1: Recombinant S1 protein of MERS-CoV, K9N5Q8 18-725 (ligand)
# chain: YVDVGPDSVKSACIEVDIQQTFFDKTWPRPIDVSKADGIIYPQGRTYSNITITYQGLFPYQGDHGDMYVYSAGHATGTTPQKLFVANYSQDVKQFANGFVVRIGAAANSTGTVIISPSTSATIRKIYPAFMLGSSVGNFSDGKMGRFFNHTLVLLPDGCGTLLRAFYCILEPRSGNHCPAGNSYTSFATYHTPATDCSDGNYNRNASLNSFKEYFNLRNCTFMYTYNITEDEILEWFGITQTAQGVHLFSSRYVDLYGGNMFQFATLPVYDTIKYYSIIPHSIRSIQSDRKAWAAFYVYKLQPLTFLLDFSVDGYIRRAIDCGFNDLSQLHCSYESFDVESGVYSVSSFEAKPSGSVVEQAEGVECDFSPLLSGTPPQVYNFKRLVFTNCNYNLTKLLSLFSVNDFTCSQISPAAIASNCYSSLILDYFSYPLSMKSDLSVSSAGPISQFNYKQSFSNPTCLILATVPHNLTTITKPLKYSYINKCSRFLSDDRTEVPQLVNANQYSPCVSIVPSTVWEDGDYYRKQLSPLEGGGWLVASGSTVAMTEQLQMGFGITVQYGTDTNSVCPKLEFANDTKIASQLGNCVEYSLYGVSGRGVFQNCTAVGVRQQRFVYDAYQNLVGYYSDDGNYYCLRACVSVPVSVIYDKETKTHATLFGSVACEHISSTMSQYSRSTRSMLKRRDSTYGPLQTPVGCVLGLVNSSLFVE
# Biological target: 6×His tag-AVI tag-DPP4 fusion protein, site-directed biotinylated and labeled with color latex throu (human), P27487
# Conditions: remark: other sources report otherwise
binder,measurement,value
B1,sensitivity of the test strip (lowest positive concentration),10 nM
